The RNAGym collection of RNA variant scans (doi:10.1073/pnas.2313332121)
This sample holds only a part of the variants without activity.

B1: TPR 5TU (parent)
chain: GGAUCUUCUCGAUCUAACAAAAAAGACAAAUCUGCCACAAAGCUUGAGAGCAUCUUCGGAUGCAGAGGCGGCAGCCUUCGGUGGCGCGAUAGCGCCAACGUUCUCAACUAUGACACGCAAAACGCGUGCUCCGUUGAAUGGAGUUUAUCAUG

Variants of: B1
Assay: polymerase ribozyme fitness, log enrichment relative to wild type (log ratio); higher = more active; in vitro selection for triplet polymerase activity
Method in brief: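 One round of in vitro selection, in triplicate, was applied to PCR-built, transcribed mutant libraries of each subunit of a heterodimeric triplet polymerase ribozyme. The steps were annealing with a biotinylated primer, partner subunit and triplets, incubation frozen at −7 °C, gel excision of extended constructs, streptavidin-bead capture and RT-PCR. Fitness is the logarithm, base 2, of genotype enrichment over wild-type enrichment from inverse-variance-weighted replicate averages of Illumina-sequenced inputs and outputs, keeping genotypes with ≥10 input reads and ≥1 read per output.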

First: GGAUCUUCUCGAUCUAACAAAAAAGACAAAUCUGCCACAAAGCUUGAGAGCAUCUCCGGAUGCAGAGGCGGCAGCCUUCGGUGGCGCGAUAGCGCCAACGUUGUCAACUAUGACACGCAAAACGCGUGUUCCGUUGAAUGGAGUUUAUCAUG [U56C C103G C129U]
Second: GGAUCUUCUCGAUCUAACAAAAAAGACAAAUCUGCCACAAAGCUUGAGAGCAUCUGUGGAUUCAGGGGCGGCAGUCUUCGGUUGCGCGAUAGCGCCAACGUUCUCAACUAUGACACGCAAAACGCGUGCUCCGUUGAAUGGAGUUUAUCAUG [U56G C57U G62U A66G C75U G83U]
The “polymerase ribozyme fitness (log ratio)” value of the first is higher: -4.1 for the first, ≤ -4.2 for the second.

GGAUCUUCUCGAUCUAACAAAAAAGACAAAUCUGCCACAAAGCUUGAGAGCAUCUCCGGAUGCAGAGGCGGCAGCCUUCGGUUGCGCGAUAGCGCCAACGUUCUCAACUAUGACACGCAAAACGCGUGCUCCGUUGAAUGGAGUUUAUCAUG [U56C G83U] and GGAUCUUCUCGAUCUAACAAAAAAGACAAAUCUGCCACAAAGCUUGAGAGCAUCUGCGGAUGCAGAGGCGGCAGCCUUCGGUGGCGCGAUAGCGCCAACGUUCUCAACUAUGACACGCAAAACGCGUGCUCCGUUGAAUGGAGUUUAUCAUG [U56G] are within 0.2 log units of each other in “polymerase ribozyme fitness (log ratio)” value: -0.525 for the first, -0.573 for the second.

Going from GGAUCUUCUCGAUCUAACAAAAAAGACAAAUCUGCCACAAAGCUUGAGAGCAUCUCCGGAUGCAGAGGCGGCAGCCUUCGGUGGCGCGAUAGCGCCAACGUUCUCAACUAUGACACGCAAAACGCGUGCUCCGUUGAAUGGAGUUUAUCAUG [U56C] to GGAUCUUCUCGAUCUAACAAAAAAGACAAAUCUGCCACAAAGCUUGAGAGCAUCUCCGGAUGCAGAGGAGGCAGCCUUCGGUGGCGCGAUAGCGCCAACGUUCUCAACUAUGACACGCAAAACGCGUGCUCCGUAGAAUGGAGUUUAUCAUG [U56C C69A U135A], the “polymerase ribozyme fitness (log ratio)” value falls from -0.389 to -3.01.

First: GGAUCUUCUCGAUCUAACAAAAAAGACAAAUCUGCCACAAAGCUUGAGAGCAUCUGUGGAUGCAGAGGCGGCAGCCUUCGGUGGCGCGAUAGCGCUAACGUUCUCAACUAUGACACGCAAAACGCGUGCUCCGUUGAAUGGAGUUUAUCAUG [U56G C57U C96U]
Second: GGAUCUUCUCGAUCUAACAAAAAAGACAAAUCUGCCACAAAGCUUGAGAGCAUCUGCGGAUGCAGAGGCGGCAGCCUUCGGUGGCGCGAUAGCGCCAACGUUCUCAACUAUGACACGCCAAACGCGUGCUCCGUUGAAUGGAGUUGAUCAUG [U56G A119C U146G]
The “polymerase ribozyme fitness (log ratio)” value of the first is higher: -0.884 for the first, -1.1 for the second.

Compared with GGAUCUUCUCGAUCUAACAAAAAAGACAAAUCUGCCACAAAGCUUGAGAGCAUCUCCGGAUGCAGAGGCGGCAGCCUUCGGUGGCGCGAUAGCGCCAACGGUCUCAACUAUGACACGCAUAACGCGUGCUACGUUGAAUGGAGUUUAUCAUG [U56C U101G A120U C131A], GGAUCUUCUCGAUCUAACAAAAAAGACAAAUCUGCCACAAAGCUUGAGAGCAUCUACGGAUGCAGAGGCGGCAGCCUUCGGUGGCGCGAUAGCGCCAACGUUCUCAACUAUGACACGCAAAACGCGUGCUCCGUUGAAUGGAGUUAAUCAUG [U56A U146A] is higher in “polymerase ribozyme fitness (log ratio)” value: -2.44 for the first, -0.732 for the second.

First: GGAUCUUCUCGAUCUAACAAAAAAGACAAAUCUGCCACAAAGCUUGAGAGCAUCUCAGGAUGCAGAGGCGGCAGCCUUCGGUGGCGCGAUAGCGCCAACGUUCUCAACUAUGACACGCAAAACGCGUGCUCCGUUGAAUGGAGUUUAUCAUG [U56C C57A]
Second: GGAUCUUCUCGAUCUAACAAAAAAGACAAAUCUGCCACAAAGCUUGAGAGCAUCUCCGGAUGCAGAGGCGGCAGCCUUCGGUGGCGCGAUAGCGCCAACGUUCUCAACUAUGACACGCACAACGCGUGCUCCGUUGAAUGGAGUUUAUUAUG [U56C A120C C149U]
The “polymerase ribozyme fitness (log ratio)” value of the first is higher: 0.0626 for the first, -1.17 for the second.

Compared with GGAUCUUCUCGAUCUAACAAAAAAGACAAAUCUGCCACAAAGCUUGAGAGCAUCUGCGGAUGCCGAGGCGGCAGCCUUCGGUGGCGCGAUAGCGCCAACGUUCUCAACUAUGACACGCAAAACGCGUGCUCCGUUGAAUGGAGUUUAUCAUG [U56G A64C], GGAUCUUCUCGAUCUAACAAAAAAGACAAAUCUGCCACAAAGCUUGAGAGCAUCUGCGGGUGCAGAGGCGGCAGCCUUCGGUGGCGCGAUAGCGCCAACGUUCUCAACUAUGACACGCAAAACGCGUGCUCCGUUGAAUGGAGUUUAUCAUG [U56G A60G] is higher in “polymerase ribozyme fitness (log ratio)” value: ≤ -4.2 for the first, -0.515 for the second.

First: GGAUCUUCUCGAUCUAACAAAAAAGACAAAUCUGCCACAAAGCUUGAGAGCAUCUACGGAUGCAGAGGCGGCAGCCUUCGGUGGCGCGAUAGCGCCAACGUUCUCAACUAUGACACGCAAAACGCGUGCUCCGUUGAAUGGAGUUUACCAUG [U56A U148C]
Second: GGAUCUUCUCGAUCUAACAAAAAAGACAAAUCUGCCACAAAGCUUGAGAGCAUCUCCGGAUGCAGAGGCGGCAGCCUUCGGUGGCGGGAUAGCGCCAACGUUCUCAACUAUGACACGCAAAACGCGUGCUCCGUUGAAUGGAGUUUAUCAUG [U56C C87G]
The “polymerase ribozyme fitness (log ratio)” value of the first is higher: -1.25 for the first, ≤ -4.2 for the second.

GGAUCUUCUCGAUCUAACAAAAAAGACAAAUCUGCCACAAAGCUUGAGAGCAUCUCCGGAUGCAGAGGCGGCAGCCUUCGGUGGCGUGAUAGCGCCAACGUUCUCAACUGUGACACGCAAAACGCGUGCUCCGUUGAAUGGAGUUUAUCAUG [U56C C87U A110G] and GGAUCUUCUCGAUCUAACAAAAAAGACAAAUCUGCCACAAAGCUUGAGAGCAUCUGCGGAUGCAGAGGCGGCAGCCUUCGGUGGCGCGCUAGCGCAAACGUUCUCAACUAUGACAGGCCAAACGCGUGCUCCGUUGAAUGGAGUUUAUCAUG [U56G A89C C96A C116G A119C] are within 0.2 log units of each other in “polymerase ribozyme fitness (log ratio)” value: -3.04 for the first, -3.23 for the second.

In the case of GGAUCUUCUCGAUCUAACAAAAAAGACAAAUCUGCCACAAAGCUUGAGAGCAUCUCCGGAUGCAGAGGCGGCAGCCUUCUGUGGCGCGAUAGCGCCAACGUUCUCAACUAUGACACGCAAAACGCGUGCUCCGUUGAAUGGAGUUUAUCAUG [U56C G80U], the “polymerase ribozyme fitness (log ratio)” value is reported as -0.2.
